Source: publication PMC2765437

How the values were obtained:
[1] = tested on: M-pol (MuLV RT polymerase domain) (MuLV); assay: EMSA; details: 50 mM Tris-HCl pH 7.8, 60 mM KCl, 1 mM DTT, 0.01% NP40, 10% glycerol; 5 nM labeled template-primer, 10 uL; 6% native gel in Tris-borate pH 8.2 run at 4 C …
wild-type MuLV RT (MuLV) = assay: EMSA; details: 50 mM Tris-HCl pH 7.8, 60 mM KCl, 1 mM DTT, 0.01% NP40, 10% glycerol; 5 nM labeled template-primer, 10 uL; 6% native gel in Tris-borate pH 8.2 run at 4 C …
[2] = tested on: chimeric HIV-1 RT (HIV-1 RT polymerase domain + MuLV RT RNase H domain) (HIV-1 / MuLV chimera); assay: EMSA; details: 50 mM Tris-HCl pH 7.8, 60 mM KCl, 1 mM DTT, 0.01% NP40, 10% glycerol; 5 nM labeled template-primer, 10 uL; 6% native gel in Tris-borate pH 8.2 run at 4 C …
[3] = tested on: chimeric MuLV RT (MHCI RT; MuLV RT polymerase domain + HIV-1 RT RNase H domain) (MuLV / HIV-1 chimera); assay: EMSA; details: 50 mM Tris-HCl pH 7.8, 60 mM KCl, 1 mM DTT, 0.01% NP40, 10% glycerol; 5 nM labeled template-primer, 10 uL; 6% native gel in Tris-borate pH 8.2 run at 4 C …
[4] = tested on: wild-type HIV-1 RT (p66/66) (HIV-1); assay: EMSA; details: 50 mM Tris-HCl pH 7.8, 60 mM KCl, 1 mM DTT, 0.01% NP40, 10% glycerol; 5 nM labeled template-primer, 10 uL; 6% native gel in Tris-borate pH 8.2 run at 4 C …
[5] = molecular target: wild-type p66/66 HIV-1 RT (human immunodeficiency virus type 1 reverse transcriptase) (human immunodeficiency virus type 1); assay: glycerol gradient ultracentrifugation; 50 micrograms of each enzyme alone on 5 ml of 10%-30% linear glycerol gradient in 50 mM Tris HCl pH 8.0, 400 mM NaCl; 48,000 rpm, 20-24 h, SW 50.1 rotor; fractions from the bottom analysed by SDS-PAGE and Coomassie blue

| Substance | Kd [1] | Kd (wild-type MuLV RT (MuLV)) | Kd [2] | Kd [3] | Kd [4] | stoichiometry N [5] |
| --- | --- | --- | --- | --- | --- | --- |
| 49-mer DNA template / 17-mer PBS DNA primer | 1.2 nM | 2.7 nM | 1.5 nM | 3.3 nM | 3.2 nM |  |
| wild-type p66/66 HIV-1 RT (human immunodeficiency virus type 1 reverse transcriptase) (enzyme) |  |  |  |  |  | 2 |
